Patent US20080089862A1 (published 2008)

Legend:
Experiment in all cases: ELISA
[1] = target: peptide aptamer RB15 (MBP with C-terminal peptide […]) (Escherichia coli (strain K12), UniProt P0AEX9 29-392 = MBP)
[2] = target: peptide aptamer RB13 (MBP with C-terminal peptide […]) (Escherichia coli (strain K12), UniProt P0AEX9 29-392 = MBP)
[3] = target: peptide aptamer RB18 (MBP with C-terminal peptide […]) (Escherichia coli (strain K12), UniProt P0AEX9 29-392 = MBP)
[4] = target: peptide aptamer RB17 (MBP with C-terminal peptide […]) (Escherichia coli (strain K12), UniProt P0AEX9 29-392 = MBP)
[5] = target: peptide aptamer NNS8/N22 (MBP with C-terminal peptide […]) (Escherichia coli (strain K12), UniProt P0AEX9 29-392 = MBP)
[6] = target: peptide aptamer NNS8/N10 (MBP with C-terminal peptide […]) (Escherichia coli (strain K12), UniProt P0AEX9 29-392 = MBP)
[7] = target: peptide aptamer RB16 (MBP with C-terminal peptide […]) (Escherichia coli (strain K12), UniProt P0AEX9 29-392 = MBP)
[8] = target: peptide aptamer NNS8/N23 (MBP with C-terminal peptide […]) (Escherichia coli (strain K12), UniProt P0AEX9 29-392 = MBP)
[9] = target: peptide aptamer NNS8/N5 (MBP with C-terminal peptide […]) (Escherichia coli (strain K12), UniProt P0AEX9 29-392 = MBP)
[10] = target: peptide aptamer NNS8/N21 (MBP with C-terminal peptide […]) (Escherichia coli (strain K12), UniProt P0AEX9 29-392 = MBP)
[11] = target: peptide aptamer NNS8/N7 (MBP with C-terminal peptide […]) (Escherichia coli (strain K12), UniProt P0AEX9 29-392 = MBP)
[12] = target: peptide aptamer NNS8/N8 (MBP with C-terminal peptide […]) (Escherichia coli (strain K12), UniProt P0AEX9 29-392 = MBP)

Measured: binding result

B1: single-chain NS3 protease (scNS3) (enzyme)
chain: GSVVIVGRIILSGRAPITAYSQQTRGLLGCIITSLTGRDKNQVEGEVQVVSTATQSFLATCVNGVCWTVYHGAGSKTLAAPKGPITQMYTNVDQDLVGWPKPPGARSLTPCTCGSSDLYLVTRHADVIPVRRRGDSRGSLLSPRPVSYLKGSSGGPLLCPFGHAVGIFRAAVCTRGVAKAVDFVPVESMETTMRS
notes: domain: NS4A cofactor peptide;domain: NS3 protease domain
no binding: all assays above
